Measured values taken from patent publication US8557777B2, “Methods for treating cancer using prostate specific antigen and tumor endothelial marker peptides” (The Board of Trustees of the University of Illinois, priority 2010, dated 2013).
Ends that are not written are not given here.

How the values were obtained:
HLA-A2 = HLA-A2 (Homo sapiens, UniProt P04439, D140Y/D185E/D98H/E176V/E277Q/G131W/G231S/I119V/I121R/I166T/I218V/L300P/L318F/N151K/N90K/P208A/P217A/Q86G/Q94H/R138H/R169H/T345S); test: T2 binding assay: stabilization of HLA-A2 expression by TEM8 peptides; settings: for expression of HLA-A2 on T2 cells over baseline levels: baseline T2 + DMSO, TEM8 207-215 10 ug/ml, TEM8 298-306 40 ug/ml (FIG. 9)
patients with CaP [1] = test: Toxicity graded by NIH Common Terminology Criteria for Adverse Events v3.0
patients with CaP [2] = settings: in vivo
[3] = type: physicochemical
Experimental: Identified candidate peptides were synthesized (Protein Laboratory, Research Resources Facility, University of Illinois, Chicago) at greater than 95% purity, dissolved in dimethylsulphoxide (DMSO) at a concentration of 5 mg/ml and stored at −20° C. Peptides were tested for their ability to stabilize the expression of HLA-A2 on antigen-processing defective T2 cell line (ATCC, Manassas, Va.) as previously described [Xue et al., Prostate 1997; 30:73-78]. Briefly, 5×10^5 T2 cells in RPMI 1640 medium containing 10% fetal bovine serum (BioWhitaker, Walkersville, Md.) were incubated with varying amounts (1 to 80 ug/ml) of TEM8 peptide or control HIV-RT476-484 peptide, and cultured in 24 well plates for 18 hours at 37° C. HLA-A2 expression was visualized by direct staining with FITC conjugated MA2.1 antibody or an isotype control (BD Biosciences, San Diego, Calif.) followed by analysis on a FC500 flow cytometer (Beckman Coulter, Miami, Fla.).
TEM8 is known to share 60% sequence homology within the extracellular integrin-like-I domain region with another protein called capillary morphogenesis protein 2 (CMG2) that is widely expressed in normal tissues [Chen et al., J Biol. Chem. 2007 Mar. 30; 282(13):9834-45. Epub 2007 Jan 24]. […] Three remaining peptides were tested in T2 binding assays. […]

HLA-A201 = biological target: T1, HLA-A201 (Homo sapiens, UniProt P04439, D140Y/D185E/D98H/E176V/E277Q/G131W/G231S/I119V/I121R/I166T/I218V/L300P/L318F/N151K/N90K/P208A/P217A/Q86G/Q94H/R138H/R169H/T345S); test: Peptide-binding assay on T2 cells (PSA peptide)
T1 construct: stabilize the expression of HLA-A2 on antigen-processing defective T2 cell line; host or cells: T2 cells
Experimental: The antigen-processing defective cell line, T2, was used to assay peptide binding to HLA-A201 as previously detailed [Xue et al., Prostate 30(2): 73-8 (1997)]. Briefly, T2 cells (5×10^5/well) were pulsed with PSA-peptide or DMSO at the designated concentration and cultured in 24-well plates overnight (18 hours) at 37° C. in 5% CO2 atmosphere. HLA-A2 expression was measured by flow cytometry using FITC conjugated anti HLA-A2 antibody (clone BB7.2) from BD Biosciences (San Diego, Calif.).

Molecule	T2 binding (HLA-A2)	expression of HLA-A2 on T2 cells over baseline levels (HLA-A2)	other results
ALQGIIHSI [TEM8 207-215, 9-mer HLA-A0201 peptide of Tumor Endothelial Marker-8]	Yes	showed enhanced expression of HLA-A2 over baseline levels	binding affinity in comparison to HIV-RT 476-484 (HLA-A2; control HLA-0201 binding peptide): greater binding affinity
SMNDGLSFI [TEM8 298-306, 9-mer HLA-A0201 peptide of Tumor Endothelial Marker-8]	Yes	showed enhanced expression of HLA-A2 over baseline levels	–
CC(C)C[C@H](NC(=O)[C@H](CC(=O)O)NC(=O)[C@@H](NC(=O)[C@H](CS)NC(=O)[C@H](CCC(N)=O)NC(=O)[C@H](CC(C)C)NC(=O)[C@@H](N)CCCCN)C(C)C)C(=O)N[C@@H](Cc1c[nH]cn1)C(=O)N[C@H](C(=O)O)C(C)C [PSA146-154 peptide]	–	–	late safety (patients with CaP [1]; after six to eight years of monitoring): no late safety concerns or deleterious sequelae; reactions at the site of injection (patients with CaP [1]; all patients under protocol-1 (intradermal peptide + GM-CSF)): Mild pain, itching, and erythema with or without induration; treatment related grade 3/4 toxicities (patients with CaP [2]): no treatment related grade 3/4 toxicities
TLNEKPFSV [TEM8 266-274, 9-mer HLA-A0201 peptide of Tumor Endothelial Marker-8]	No	did not	–
FLLLALALL [TEM8 331-339]	–	–	solubility in DMSO [3]: insoluble in DMSO
CALPERPSLYTKVVHYRKWIK [PSA210-230 peptide, long chain synthetic peptide corresponding to PSA residues 210-230]	–	–	HLA-A201 binding capacity (HLA-A201): binds with high affinity in a concentration dependent fashion
